In data set [1] the target is T1, Mit1 C-terminal domain (1156–1417) (S. pombe, UniProt Q9P793 1156-1417).
T1 sequence (looked up): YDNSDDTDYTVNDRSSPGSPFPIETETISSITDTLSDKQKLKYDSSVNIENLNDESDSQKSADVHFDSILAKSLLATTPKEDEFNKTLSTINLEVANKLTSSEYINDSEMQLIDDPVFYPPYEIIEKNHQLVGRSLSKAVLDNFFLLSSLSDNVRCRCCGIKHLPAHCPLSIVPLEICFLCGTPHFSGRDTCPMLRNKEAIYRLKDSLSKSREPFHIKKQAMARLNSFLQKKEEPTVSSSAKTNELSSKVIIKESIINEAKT
Description: pull-down.

Data set [2] deals with the molecule itself.

B1: Clr1 region between residues 357–500 (domain or fragment, S. pombe, UniProt O74808 357-500, looked up)
chain: PFLTPDNIASSILYSTASFSRSKPDRPRLNLSLELKLMQNELNKGQLKKQFKGDLRNLADWNNLSLVSSKFPSLPITNLRPDGSFLKHRRFNEEIAYNRQTLEKAIKQLDLSPDKVIQLREQNGVAVNGRVCYPTRNKHSEISA
As to B1, the binding result in data set [1] is on record as “binds”.

B2: Clr3 (aa31–687) (enzyme, S. pombe, UniProt P56523 31-687, looked up)
chain: TNNKPMSGSENTLNNESHEMSQILKKSGLCYDPRMRFHATLSEVDDHPEDPRRVLRVFEAIKKAGYVSNVPSPSDVFLRIPAREATLEELLQVHSQEMYDRVTNTEKMSHEDLANLEKISDSLYYNNESAFCARLACGSAIETCTAVVTGQVKNAFAVVRPPGHHAEPHKPGGFCLFNNVSVTARSMLQRFPDKIKRVLIVDWDIHHGNGTQMAFYDDPNVLYVSLHRYENGRFYPGTNYGCAENCGEGPGLGRTVNIPWSCAGMGDGDYIYAFQRVVMPVAYEFDPDLVIVSCGFDAAAGDHIGQFLLTPAAYAHMTQMLMGLADGKVFISLEGGYNLDSISTSALAVAQSLLGIPPGRLHTTYACPQAVATINHVTKIQSQYWRCMRPKHFDANPKDAHVDRLHDVIRTYQAKKLFEDWKITNMPILRDSVSNVFNNQVLCSSNFFQKDNLLVIVHESPRVLGNGTSETNVLNLNDSLLVDPVSLYVEWAMQQDWGLIDINIPEVVTDGENAPVDILSEVKELCLYVWDNYVELSISKNIFFIGGGKAVHGLVNLASSRNVSDRVKCMVNFLGTEPLVGLKTASEEDLPTWYYRHSLVFVSSSNECWKKAKRAKRRYGRLMQSEHTETSDMMEQHYRAVTQYLLHLLQKARPTSQ
As for B2, the “stoichiometry N” value in data set [2] stood at 2.

These data come from PMC4890606 (Molecular cell, 2016).
